Data: the supplement of paper PMC10724198
± gives the standard deviation of the averaged measurements.

Columns and labels:
Saccharomyces cerevisiae [1] = assay: protein stability index of tFT-peptide fusion (C-terminal peptide) (PSI (0-1 scale)); higher = more stable (slower turnover)
Protocol: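 MPS profiling in S. cerevisiae of the tFT-X12 degron library: putative degron peptides plus stable controls, 12 aa, fused to the C-terminus of a sfGFP-mCherry timer. Cells are FACS-sorted into 8 mCherry/sfGFP bins and deep-sequenced. PSI runs from 0 (unstable) to 1 (stable). Backgrounds are wild type, das1Δ and doa10Δ at 30 °C, and wild type, das1Δ, cdc34-1 and cdc53-1 at 37 °C; 2-3 technical replicates each.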

Saccharomyces cerevisiae [2] = assay: as above; conditions: genetic background: wild type; temperature: 30 C
[3] = genetic background: cdc34-1, temperature: 37 C
[4] = genetic background: cdc53-1, temperature: 37 C
[5] = genetic background: das1 deletion, temperature: 30 C
[6] = genetic background: das1 deletion, temperature: 37 C
[7] = genetic background: doa10 deletion, temperature: 30 C
[8] = genetic background: wild type, temperature: 30 C
[9] = genetic background: wild type, temperature: 37 C
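Also: PSI is a weighted mean of sequencing reads over stability bins, variants kept only with over 10 reads, mCherry proximal and sfGFP distal, peptide attached via GGGS linker.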

Sequence: LYSVLWFCFPLV
- protein stability index (Saccharomyces cerevisiae [1]; [3]): 0.586 ± 0.039
- protein stability index (Saccharomyces cerevisiae [1]; [4]): 0.5638 ± 0.0037
- protein stability index (Saccharomyces cerevisiae [1]; [5]): 0.446 ± 0.025
- protein stability index (Saccharomyces cerevisiae [1]; [6]): 0.577 ± 0.0076
- protein stability index (Saccharomyces cerevisiae [1]; [7]): 0.442 ± 0.035
- protein stability index (Saccharomyces cerevisiae [1]; [8]): 0.42 ± 0.024
- protein stability index (Saccharomyces cerevisiae [1]; [9]): 0.55 ± 0.01
- protein stability index (Saccharomyces cerevisiae [2]): 0.466 ± 0.028

Sequence: VGVVLWVWGLGD
- protein stability index (Saccharomyces cerevisiae [1]; [3]): 0.533 ± 0.026
- protein stability index (Saccharomyces cerevisiae [1]; [4]): 0.6012 ± 0.0037
- protein stability index (Saccharomyces cerevisiae [1]; [5]): 0.409 ± 0.033
- protein stability index (Saccharomyces cerevisiae [1]; [6]): 0.636 ± 0.022
- protein stability index (Saccharomyces cerevisiae [1]; [7]): 0.423 ± 0.0063
- protein stability index (Saccharomyces cerevisiae [1]; [8]): 0.426 ± 0.032
- protein stability index (Saccharomyces cerevisiae [1]; [9]): 0.61 ± 0.03
- protein stability index (Saccharomyces cerevisiae [2]): 0.446 ± 0.035

Sequence: LRSVLGWGLFLA
- protein stability index (Saccharomyces cerevisiae [1]; [3]): 0.45 ± 0.033
- protein stability index (Saccharomyces cerevisiae [1]; [4]): 0.494 ± 0.014
- protein stability index (Saccharomyces cerevisiae [1]; [5]): 0.493 ± 0.027
- protein stability index (Saccharomyces cerevisiae [1]; [6]): 0.621 ± 0.0097
- protein stability index (Saccharomyces cerevisiae [1]; [7]): 0.236 ± 0.0088
- protein stability index (Saccharomyces cerevisiae [1]; [8]): 0.208 ± 0.021
- protein stability index (Saccharomyces cerevisiae [1]; [9]): 0.422 ± 0.0078
- protein stability index (Saccharomyces cerevisiae [2]): 0.325 ± 0.018

Sequence: LFLLSHYALCFY
- protein stability index (Saccharomyces cerevisiae [1]; [3]): 0.523 ± 0.0055
- protein stability index (Saccharomyces cerevisiae [1]; [4]): 0.53 ± 0.018
- protein stability index (Saccharomyces cerevisiae [1]; [5]): 0.441 ± 0.018
- protein stability index (Saccharomyces cerevisiae [1]; [6]): 0.593 ± 0.028
- protein stability index (Saccharomyces cerevisiae [1]; [7]): 0.333 ± 0.0045
- protein stability index (Saccharomyces cerevisiae [1]; [8]): 0.336 ± 0.017
- protein stability index (Saccharomyces cerevisiae [1]; [9]): 0.527 ± 0.012
- protein stability index (Saccharomyces cerevisiae [2]): 0.3967 ± 0.0035

Sequence: GRLDHWNKHKYI
- protein stability index (Saccharomyces cerevisiae [1]; [3]): 0.528 ± 0.031
- protein stability index (Saccharomyces cerevisiae [1]; [4]): 0.687 ± 0.032
- protein stability index (Saccharomyces cerevisiae [1]; [5]): 0.64 ± 0.0064
- protein stability index (Saccharomyces cerevisiae [1]; [6]): 0.783 ± 0.024
- protein stability index (Saccharomyces cerevisiae [1]; [7]): 0.104 ± 0.013
- protein stability index (Saccharomyces cerevisiae [1]; [8]): 0.0786 ± 0.026
- protein stability index (Saccharomyces cerevisiae [1]; [9]): 0.14 ± 0.032
- protein stability index (Saccharomyces cerevisiae [2]): 0.184 ± 0.0029

Sequence: GGWSLFCIVVVV
- protein stability index (Saccharomyces cerevisiae [1]; [3]): 0.111 ± 0.039
- protein stability index (Saccharomyces cerevisiae [1]; [4]): 0.171 ± 0.0092
- protein stability index (Saccharomyces cerevisiae [1]; [5]): 0.179 ± 0.029
- protein stability index (Saccharomyces cerevisiae [1]; [6]): 0.306 ± 0.0031
- protein stability index (Saccharomyces cerevisiae [1]; [7]): 0.167 ± 0.013
- protein stability index (Saccharomyces cerevisiae [1]; [8]): 0.173 ± 0.035
- protein stability index (Saccharomyces cerevisiae [1]; [9]): 0.253 ± 0.0092
- protein stability index (Saccharomyces cerevisiae [2]): 0.268 ± 0.074

Sequence: FCVVFFLSLVFL
- protein stability index (Saccharomyces cerevisiae [1]; [3]): 0.457 ± 0.01
- protein stability index (Saccharomyces cerevisiae [1]; [4]): 0.491 ± 0.03
- protein stability index (Saccharomyces cerevisiae [1]; [5]): 0.391 ± 0.027
- protein stability index (Saccharomyces cerevisiae [1]; [6]): 0.511 ± 0.013
- protein stability index (Saccharomyces cerevisiae [1]; [7]): 0.4225 ± 0.0026
- protein stability index (Saccharomyces cerevisiae [1]; [8]): 0.386 ± 0.0062
- protein stability index (Saccharomyces cerevisiae [1]; [9]): 0.49 ± 0.0029
- protein stability index (Saccharomyces cerevisiae [2]): 0.495 ± 0.046

Sequence: FFCRWGSTVTLL
- protein stability index (Saccharomyces cerevisiae [1]; [3]): 0.604 ± 0.034
- protein stability index (Saccharomyces cerevisiae [1]; [4]): 0.696 ± 0.013
- protein stability index (Saccharomyces cerevisiae [1]; [5]): 0.557 ± 0.014
- protein stability index (Saccharomyces cerevisiae [1]; [6]): 0.647 ± 0.037
- protein stability index (Saccharomyces cerevisiae [1]; [7]): 0.4076 ± 0.001
- protein stability index (Saccharomyces cerevisiae [1]; [8]): 0.427 ± 0.01
- protein stability index (Saccharomyces cerevisiae [1]; [9]): 0.559 ± 0.011

Sequence: TLDCKFGRGGIG
- protein stability index (Saccharomyces cerevisiae [1]; [3]): 0.309 ± 0.015
- protein stability index (Saccharomyces cerevisiae [1]; [4]): 0.423 ± 0.013
- protein stability index (Saccharomyces cerevisiae [1]; [5]): 0.332 ± 0.0069
- protein stability index (Saccharomyces cerevisiae [1]; [6]): 0.401 ± 0.017
- protein stability index (Saccharomyces cerevisiae [1]; [7]): 0.325 ± 0.0077
- protein stability index (Saccharomyces cerevisiae [1]; [8]): 0.321 ± 0.013
- protein stability index (Saccharomyces cerevisiae [1]; [9]): 0.392 ± 0.0016

Sequence: WLFAILPSRLIA
- protein stability index (Saccharomyces cerevisiae [1]; [3]): 0.284 ± 0.021
- protein stability index (Saccharomyces cerevisiae [1]; [4]): 0.373 ± 0.0075
- protein stability index (Saccharomyces cerevisiae [1]; [5]): 0.344 ± 0.035
- protein stability index (Saccharomyces cerevisiae [1]; [6]): 0.488 ± 0.0068
- protein stability index (Saccharomyces cerevisiae [1]; [7]): 0.0644 ± 0.0086
- protein stability index (Saccharomyces cerevisiae [1]; [8]): 0.0673 ± 0.012
- protein stability index (Saccharomyces cerevisiae [1]; [9]): 0.0638 ± 0.0027

Sequence: GAVRGWGWVSFV
- protein stability index (Saccharomyces cerevisiae [1]; [3]): 0.622 ± 0.0072
- protein stability index (Saccharomyces cerevisiae [1]; [4]): 0.789 ± 0.011
- protein stability index (Saccharomyces cerevisiae [1]; [5]): 0.595 ± 0.025
- protein stability index (Saccharomyces cerevisiae [1]; [6]): 0.71792 ± 4.5e-05
- protein stability index (Saccharomyces cerevisiae [1]; [7]): 0.357 ± 0.054
- protein stability index (Saccharomyces cerevisiae [1]; [8]): 0.317 ± 0.04
- protein stability index (Saccharomyces cerevisiae [1]; [9]): 0.436 ± 0.0078

Sequence: GFYQSGGLVVVV
- protein stability index (Saccharomyces cerevisiae [1]; [3]): 0.6489 ± 0.0026
- protein stability index (Saccharomyces cerevisiae [1]; [4]): 0.674 ± 0.014
- protein stability index (Saccharomyces cerevisiae [1]; [5]): 0.501 ± 0.03
- protein stability index (Saccharomyces cerevisiae [1]; [6]): 0.663 ± 0.0058
- protein stability index (Saccharomyces cerevisiae [1]; [7]): 0.482 ± 0.017
- protein stability index (Saccharomyces cerevisiae [1]; [8]): 0.515 ± 0.013
- protein stability index (Saccharomyces cerevisiae [1]; [9]): 0.64 ± 0.028

Sequence: AYSVIPSLALLP
- protein stability index (Saccharomyces cerevisiae [1]; [3]): 0.681 ± 0.062
- protein stability index (Saccharomyces cerevisiae [1]; [4]): 0.741 ± 0.008
- protein stability index (Saccharomyces cerevisiae [1]; [5]): 0.631 ± 0.024
- protein stability index (Saccharomyces cerevisiae [1]; [6]): 0.731 ± 0.0022
- protein stability index (Saccharomyces cerevisiae [1]; [7]): 0.646 ± 0.018
- protein stability index (Saccharomyces cerevisiae [1]; [8]): 0.632 ± 0.01
- protein stability index (Saccharomyces cerevisiae [1]; [9]): 0.706 ± 0.0094

Sequence: LPLPPPGSPPPL
- protein stability index (Saccharomyces cerevisiae [1]; [3]): 0.653 ± 0.032
- protein stability index (Saccharomyces cerevisiae [1]; [4]): 0.744 ± 0.036
- protein stability index (Saccharomyces cerevisiae [1]; [5]): 0.668 ± 0.021
- protein stability index (Saccharomyces cerevisiae [1]; [6]): 0.726 ± 0.0077
- protein stability index (Saccharomyces cerevisiae [1]; [7]): 0.659 ± 0.014
- protein stability index (Saccharomyces cerevisiae [1]; [8]): 0.682 ± 0.033
- protein stability index (Saccharomyces cerevisiae [1]; [9]): 0.698 ± 0.0069

Sequence: PSLVFLPPPPPR
- protein stability index (Saccharomyces cerevisiae [1]; [3]): 0.673 ± 0.04
- protein stability index (Saccharomyces cerevisiae [1]; [4]): 0.7452 ± 0.0056
- protein stability index (Saccharomyces cerevisiae [1]; [5]): 0.677 ± 0.0098
- protein stability index (Saccharomyces cerevisiae [1]; [6]): 0.7475 ± 0.0016
- protein stability index (Saccharomyces cerevisiae [1]; [7]): 0.681 ± 0.018
- protein stability index (Saccharomyces cerevisiae [1]; [8]): 0.701 ± 0.025
- protein stability index (Saccharomyces cerevisiae [1]; [9]): 0.72099 ± 0.00046

Sequence: GGGGGGGDVLVW
- protein stability index (Saccharomyces cerevisiae [1]; [3]): 0.265 ± 0.04
- protein stability index (Saccharomyces cerevisiae [1]; [4]): 0.363 ± 0.036
- protein stability index (Saccharomyces cerevisiae [1]; [5]): 0.265 ± 0.037
- protein stability index (Saccharomyces cerevisiae [1]; [6]): 0.426 ± 0.0099
- protein stability index (Saccharomyces cerevisiae [1]; [7]): 0.202 ± 0.022
- protein stability index (Saccharomyces cerevisiae [1]; [8]): 0.244 ± 0.034
- protein stability index (Saccharomyces cerevisiae [1]; [9]): 0.392 ± 0.0048

Sequence: RWRLWGGWWVVG
- protein stability index (Saccharomyces cerevisiae [1]; [3]): 0.601 ± 0.028
- protein stability index (Saccharomyces cerevisiae [1]; [4]): 0.727 ± 0.012
- protein stability index (Saccharomyces cerevisiae [1]; [5]): 0.579 ± 0.022
- protein stability index (Saccharomyces cerevisiae [1]; [6]): 0.718 ± 0.017
- protein stability index (Saccharomyces cerevisiae [1]; [7]): 0.191 ± 0.019
- protein stability index (Saccharomyces cerevisiae [1]; [8]): 0.196 ± 0.022
- protein stability index (Saccharomyces cerevisiae [1]; [9]): 0.419 ± 0.015
